Values quoted from earlier work as cited in PMC8093553.

Biological target: transferrin receptor (Homo sapiens) (UniProt P02786)
Sequence (P02786 101-760): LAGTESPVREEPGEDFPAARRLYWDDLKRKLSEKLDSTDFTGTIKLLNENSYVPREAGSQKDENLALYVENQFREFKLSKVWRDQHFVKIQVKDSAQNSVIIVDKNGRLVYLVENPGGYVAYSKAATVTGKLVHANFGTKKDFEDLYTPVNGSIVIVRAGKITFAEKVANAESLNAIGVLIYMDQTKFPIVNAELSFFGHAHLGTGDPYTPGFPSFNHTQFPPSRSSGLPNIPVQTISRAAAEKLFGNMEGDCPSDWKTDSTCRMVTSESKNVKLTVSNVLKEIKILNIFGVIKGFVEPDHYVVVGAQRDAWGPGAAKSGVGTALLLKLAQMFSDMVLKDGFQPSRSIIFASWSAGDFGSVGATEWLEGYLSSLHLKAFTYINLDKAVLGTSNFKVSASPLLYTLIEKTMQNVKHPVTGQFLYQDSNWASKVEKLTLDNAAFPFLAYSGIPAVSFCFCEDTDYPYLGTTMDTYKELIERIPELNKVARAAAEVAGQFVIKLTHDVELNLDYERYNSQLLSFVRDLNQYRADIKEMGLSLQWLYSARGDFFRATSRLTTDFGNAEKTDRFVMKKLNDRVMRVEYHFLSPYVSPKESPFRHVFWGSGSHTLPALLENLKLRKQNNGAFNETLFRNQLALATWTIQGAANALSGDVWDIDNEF

- Kd: 10 nM
Substance: T7 peptide
